Consider one molecule from patent US7655420B2, “Methods to increase or decrease bone density” (Celltech R & D, Inc., priority 2002, dated 2010).

“Also recorded” adds a separate entry of the source.

Common to all, as to assay type: cell-based, human
The test system of assay [1] is mineralization (calcium deposition) in hMSC cells. Nature of the assay: mineralization (calcium deposition) in hMSC cells. As to conditions: for mineralization (calcium deposition), increasing concentrations: hMSC cells, Osteoblast-Inducing media, protein added at 8 days, another 13 days. The protocol:
FIG. 12B illustrates that human sclerostin decreases mineralization (calcium deposition) in hMSC cells in a dose-dependent manner. hMSC cells were plated in Osteoblast-Inducing media. Partially-purified sclerostin protein or proteins purified from Sf9 conditioned media (control) were added the next day. Cultures were maintained for 8 days, treated with sclerostin or control proteins and maintained for another 13 days before testing for mineralization. As illustrated, increasing concentrations of sclerostin give rise to diminished mineralization.
hMSC cells were plated in 96-well tissue culture dishes at a density of 10,000 cells/cm^2 in Osteoblast-Inducing medium. Partially purified preparations of baculovirus-expressed sclerostin protein were prepared in sterile PBS using NAP-5 columns prior to use. Human sclerostin protein (0 to 30 μg/ml) or an equal volume of Sf9 conditioned media (Control) was added to cultures of hMSC cells at various times after plating (1 day, 8 days, 15 days, or 21 days). The effects of sclerostin on osteoblastic differentiation were assessed by measuring alkaline phosphatase activity (ALP, determined in cell layers using DEAA buffer (Pierce) containing 0.5% NP-40 and 10 mM p-nitrophenylphosphate), synthesis of collagen type I (Prolagen C ELISA), and calcium deposition for mineralization (colorimetric assay of acid lysates of cell layers, Sigma).

The test system of assay [2] is osteoblastic markers. Nature of the assay: RT-PCR of osteoblastic markers in differentiating hMSC cells treated with sclerostin. The following applies: sclerostin 10 μg/ml, 40 hrs. The protocol: FIG. 14 illustrates that human sclerostin protein decreases expression of osteoblastic markers in cultures of differentiating hMSC cells. hMSC cells were plated in Osteoblast-Inducing media. After 3 days, partially purified sclerostin protein (10 μg/ml) or proteins purified from Sf9 conditioned media (control) were added. Cells were harvested after 40 hrs and RNA was prepared for RT-PCR analyses of osteoblastic markets.
To determine the effect of sclerostin protein on the expression of osteoblastic markers in cultures of differentiating hMSC cells, RNA was isolated after a 40-hr treatment and analyzed by RT-PCR (FIG. 14).

Assay [3] concerns hMSC cells. The assay is described as follows: apoptosis of hMSC cells by histone-associated DNA fragmentation ELISA. The following applies: increasing amounts of sclerostin, 24 hrs. The protocol: (§1) Human mesenchymal (hMSC) cells were plated in Osteoblast-inducing media (Biowhittaker's MSCGM medium supplemented with 100 nM dexamethasone, 50 μg/ml ascorbic acid, and 10 mM β-glycerophosphate) at a density of 10,000 cells/cm^2 in 96-well dishes.
(§2) For apoptosis assays, cells were treated with sclerostin or commercially available preparations of the BMP antagonists noggin, chordin, gremlin or twisted gastrulation (Tsg) for 24 hours prior to assay for caspase activity. In some experiments, cells were treated for various times with a partially purified preparation of baculovirus-expressed human sclerostin (0 to 30 μg/ml) or an equal volume of a protein preparation purified from Sf9 conditioned media (control) in the absence or presence of Calbiochem's caspase inhibitors. Cells were harvested and processed for apoptosis assays using the Homogeneous Caspase ELISA (Roche) or Cell Death (Histone-Associated DNA Fragmentation, Roche).

Assay [4] concerns caspase activity in hMSC cells. Nature of the assay: apoptosis of hMSC cells by caspase activity (Homogeneous Caspase ELISA). The following applies: for time after treatment for which caspase activity remained elevated: hMSC cells treated with sclerostin; for caspase activity: hMSC in osteoblast-inducing media, 20 μg/ml sclerostin or other protein, 24 hours. The protocol: as §1, §2

B1: sclerostin: partially purified baculovirus-expressed human sclerostin protein, SOST gene product (SEQ ID NO:3); also made with a FLAG tag (protein, listed as Homo sapiens)
chain: MQLPLALCLVCLLVHTAFRVVEGQGWQAFKNDATEIIPELGEYPEPPPELENNKTMNRAENGGRPPHHPFETKDVSEYSCRELHFTRYVTDGPCRSAKPVTELVCSGQCGPARLLPNAIGRGKWWRPSGPDFRCIPDRYRAQRVQLLCPGGEAPRARKVRLVASCKCKRLTRFHNQSELKDFGTEAARPQKGRKPRPRARSAKANQAELENAY
modifications: optional FLAG tag
B1: in assay [1] (hMSC cells treated with about 10 to 15 μg/ml of the protein, p<0.001 to control), the “decrease of mineral deposition” value is on record as “about 50%”. The “mineralization (calcium deposition), increasing concentrations” value in assay [1] (listed as Sclerostin) is “decreased”; in assay [1] (listed as human sclerostin), “decreases”. Also, the “RNA levels for osteoblast phenotypic markers PTHr, Type I collagen, BMP-2 and BMP-6” value in assay [2] is “significantly reduced”. In assay [2], the “RNA levels of markers for adipocytes (PPARγ2) or undifferentiated mesenchymal cells (endoglin)” value is listed as “not affected”. Moreover, the “amounts of histone-DNA fragments” value in assay [3] is on record as “significantly elevated; also recorded: greater amounts of histone-DNA fragments”. The entries for the “time after treatment for which caspase activity remained elevated” value in assay [4] (listed as Sclerostin) and in assay [4] (listed as human sclerostin) were “up to 72 hrs” and 72 h, respectively. The “caspase activity, increasing amounts (dose-dependent)” value in assay [4] (hMSC cells, 24 hrs) is reported as “significantly elevated; also recorded: increased caspase activity”. For the same molecule, the caspase activity entry in assay [4] is given as “significantly increased”; in assay [4] (listed as Sclerostin) it was “increased”.
